# Measured values from PMC2192655 (The Journal of Cell Biology, 2000).
# T1: Tlg2p (yeast (endogenous in the yeast strains), UniProt Q08144 1-397)
# T1 sequence: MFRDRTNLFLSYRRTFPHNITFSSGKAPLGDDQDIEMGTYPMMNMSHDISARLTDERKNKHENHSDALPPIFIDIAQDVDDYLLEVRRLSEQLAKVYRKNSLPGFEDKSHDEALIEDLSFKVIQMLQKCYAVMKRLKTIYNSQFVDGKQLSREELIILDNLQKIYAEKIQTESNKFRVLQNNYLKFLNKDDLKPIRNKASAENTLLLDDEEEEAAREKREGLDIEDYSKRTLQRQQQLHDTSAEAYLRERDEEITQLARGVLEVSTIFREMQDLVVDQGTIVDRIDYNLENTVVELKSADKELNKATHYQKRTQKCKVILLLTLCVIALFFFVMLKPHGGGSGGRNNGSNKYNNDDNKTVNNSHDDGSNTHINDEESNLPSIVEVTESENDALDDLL
# B1: HA-Snc2p (COOH-terminally triple-HA-tagged Sncp) (natural protein)
# chain: MSSSVPYDPYVPPEESNSGANPNSQNKTAALRQEIDDTVGIMRDNINKVAERGERLTSIEDKADNLAISAQGFKRGANRVRKQMWWKDLKMRMCLFLVVIILLVVIIVPIVVHFS
# Key:
# [1] = molecular target: Sncp (Snc proteins, secretory vesicle SNARE) (yeast (endogenous in the yeast strains of Table 1)) (UniProt P31109); assay: co-IP
# Tlg2p = molecular target: T1, Tlg2p; assay: co-IP
# Sncp (Snc proteins, secretory vesicle SNARE) (yeast (endogenous in the yeast strains of Table 1)), sequence (P31109 whole entry): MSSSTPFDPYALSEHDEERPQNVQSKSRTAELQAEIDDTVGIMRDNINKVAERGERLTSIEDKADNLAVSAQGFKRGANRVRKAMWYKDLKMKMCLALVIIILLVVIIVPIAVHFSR
Molecule,percent of total Ssop coprecipitating with Sncp [1] [%],fold less bound to Tlg2p than to Ssop (Tlg2p) [fold]
"Ssop (Sso proteins, plasma membrane SNARE) (from UniProt P32867 1-290) (natural protein)",0.7,–
B1,–,10
